In patent US20220406376A1 (MacroGenics, published 2022):
Residue numbers refer to the chain shown, from its start.

Key:
[1] = target: T1, HER2/neu on the surface of target cells (N87, JIMT-1, MCF-7, MDA-MB231) (UniProt P04626 23-1255, limits assumed); assay: flow cytometry on MCF-7 cells, anti-hFc APC MFI
T1 construct: whole, on cells

[2] = target: T2, CD137 on the surface of cells (activated human T cells; engineered CHO cells) (human, UniProt Q07011 24-255); assay: flow cytometry on activated CD8+ T cells (donor D53781, CD8 FITC), anti-hFc APC MFI
T2 construct: whole, on cells; also called human CD137; cell surface expressed CD137

[3] = target: T1, HER2/neu on the surface of target cells …; assay: flow cytometry on JIMT-1 cells, anti-hFc APC MFI
[4] = target: T1, HER2/neu on the surface of target cells …; assay: flow cytometry on N87 cells, anti-hFc APC MFI
[5] = target: T3, extracellular portion of cynomolgus monkey CD137 fused to a histidine-containing peptide (cynomolgus monkey, UniProt A9YYE7 24-186); assay: SPR (BIACORE); molecule captured on anti-human Fc; cynoCD137 6.25-100 nM; column head ×10^-4 applied as printed
T3 construct: extracellular domain; also called cynoCD137
T3 sequence: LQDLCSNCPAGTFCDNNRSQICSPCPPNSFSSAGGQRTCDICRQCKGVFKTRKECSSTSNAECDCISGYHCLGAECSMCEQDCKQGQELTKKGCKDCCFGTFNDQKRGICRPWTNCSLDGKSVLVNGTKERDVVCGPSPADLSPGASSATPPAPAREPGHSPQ
Description: (§1) The amino acid sequences of these clones were incorporated into the 5 chain diabody DART-G to yield optimized DART-G molecules (designated as DART-G1, DART-G2; DART-G3, and DART-G4). The binding affinity of DART-G2, DART-G3, and DART-G4 were evaluated via BIAcore (Table 11). For such evaluation, His-tagged soluble human CD137 (huCD137) or cynomolgus monkey CD137 (cynoCD137) (containing an extracellular portion of human or cynomolgus monkey CD137 fused to a histidine-containing peptide) was passed over a surface coated with immobilized antibody. Briefly, each test molecule was captured onto an F(ab)₂ goat-anti-human Fc-coated surface and then incubated in the presence of different concentrations (6.25-100 nM) of huCD137 or cynoCD137. The kinetics of binding were determined via BIACORE® analysis binding (normalized 1:1 Langmuir binding model).

[6] = target: T2, CD137 on the surface of cells …; assay: flow cytometry on CD137-expressing CHO cells (CHO/137), anti-hFc APC MFI
[7] = target: T4, extracellular portion of human CD137 fused to a histidine-containing peptide (human, UniProt Q07011 24-186); assay: SPR (BIACORE); molecule captured on anti-human Fc; huCD137 6.25-100 nM; 1:1 Langmuir
T4 construct: extracellular domain; also called huCD137; His-tagged soluble human CD137
Description: as §1

[8] = target: T3, extracellular portion of cynomolgus …; assay: SPR (BIACORE); molecule captured on anti-human Fc; cynoCD137 6.25-100 nM; 1:1 Langmuir
Description: as §1

[9] = target: T2, CD137 on the surface of cells …; assay: flow cytometry on activated pan T cells (donor D46433, CD8 PE), anti-hFc APC MFI
[10] = target: T2, CD137 on the surface of cells …; assay: flow cytometry on activated CD8+ T cells (donor D59788, CD8 FITC), anti-hFc APC MFI
[11] = target: T5, 5T4 on the surface of target cells (JIMT-1, SKOV-3) (UniProt Q13641 32-420, limits assumed); assay: flow cytometry on JIMT-1 (5T4 hi) cells, anti-hFc APC MFI
T5 construct: whole, on cells
T5 sequence (looked up): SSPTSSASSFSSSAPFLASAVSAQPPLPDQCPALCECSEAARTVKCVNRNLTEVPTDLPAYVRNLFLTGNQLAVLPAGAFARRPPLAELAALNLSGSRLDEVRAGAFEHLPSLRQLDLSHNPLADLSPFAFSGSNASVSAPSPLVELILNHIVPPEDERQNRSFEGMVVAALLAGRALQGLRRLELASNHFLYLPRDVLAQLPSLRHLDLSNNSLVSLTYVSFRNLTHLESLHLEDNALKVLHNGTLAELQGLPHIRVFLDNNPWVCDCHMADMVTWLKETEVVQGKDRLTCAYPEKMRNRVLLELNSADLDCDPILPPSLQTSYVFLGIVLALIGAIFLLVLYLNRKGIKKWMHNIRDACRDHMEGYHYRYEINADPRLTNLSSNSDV

T2 sequence (Q07011 24-255, change not shown): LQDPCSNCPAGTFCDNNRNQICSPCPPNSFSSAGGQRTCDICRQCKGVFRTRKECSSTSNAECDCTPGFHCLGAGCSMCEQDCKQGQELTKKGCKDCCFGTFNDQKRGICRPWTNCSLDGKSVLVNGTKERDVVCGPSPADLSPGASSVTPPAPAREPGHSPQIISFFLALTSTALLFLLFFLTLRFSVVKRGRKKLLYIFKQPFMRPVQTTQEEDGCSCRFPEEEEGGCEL

B1: DART-G3 (bispecific antibody, human IgG1, kappa, L234A L235A)
heavy: QVQLVQSGAEVKKPGASVKVSCKASGYTFTNYGMNWVRQAPGQGLEWMGWINTNIGEPTYTEEFKGRVTMTRDTSISTAYMELSRLRSDDTAVYYCARDDGYGNRVSYWGQGTLVTVSSASTKGPSVFPLAPSSKSTSGGTAALGCLVKDYFPEPVTVSWNSGALTSGVHTFPAVLQSSGLYSLSSVVTVPSSSLGTQTYICNVNHKPSNTKVDKRVEPKSCDKTHTCPPCPAPEAAGGPSVFLFPPKPKDTLMISRTPEVTCVVVDVSHEDPEVKFNWYVDGVEVHNAKTKPREEQYNSTYRVVSVLTVLHQDWLNGKEYKCKVSNKALPAPIEKTISKAKGQPREPQVYTLPPSREEMTKNQVSLSCAVKGFYPSDIAVEWESNGQPENNYKTTPPVLDSDGSFFLVSKLTVDKSRWQQGNVFSCSVMHEALHNRYTQKSLSLSPGK
light: DIQMTQSPSSLSASVGDRVTITCKASQDISNYLSWFQQKPGKAPKTLIYRANRLQSGVPSRFSGSGSGTDFTLTISSLQPEDFATYYCLQHDEFPWTFGQGTKLEIKRTVAAPSVFIFPPSDEQLKSGTASVVCLLNNFYPREAKVQWKVDNALQSGNSQESVTEQDSKDSTYSLSSTLTLSKADYEKHKVYACEVTHQGLSSPVTKSFNRGEC
chain 1: QVQLVQSGAEVKKPGASVKVSCKASGYTFTNYGMNWVRQAPGQGLEWMGWINTNIGEPTYTEEFKGRVTMTRDTSISTAYMELSRLRSDDTAVYYCARDDGYGNRVSYWGQGTLVTVSSASTKGPSVFPLAPSSKSTSGGTAALGCLVKDYFPEPVTVSWNSGALTSGVHTFPAVLQSSGLYSLSSVVTVPSSSLGTQTYICNVNHKPSNTKVDKRVEPKSCDKTHTCPPCPAPEAAGGPSVFLFPPKPKDTLMISRTPEVTCVVVDVSHEDPEVKFNWYVDGVEVHNAKTKPREEQYNSTYRVVSVLTVLHQDWLNGKEYKCKVSNKALPAPIEKTISKAKGQPREPQVYTLPPSREEMTKNQVSLWCLVKGFYPSDIAVEWESNGQPENNYKTTPPVLDSDGSFFLYSKLTVDKSRWQQGNVFSCSVMHEALHNHYTQKSLSLSPGGGGSGGGSGGGDIQMTQSPSSLSASVGDRVTITCRPSQDISNYLNWYQQKPDKTVKLLIYYTSRLRSGVPSRFSGSGSGTDFTFTISSLQPEDIATYFCQQGDTLPYTFGQGTKLEIKGGGSGGGGQVQVQLVQSGAEVKKPGASVKVSCKASGYTFTSYWINWVKQAPGQGLEWIGNIYPSDSYTNYNQKFKDKATITADKSTSTAYMELSSLRSEDTAVYYCTRDYGSAYSYSLWGQGTTVTVSSGGCGGGEVAALEKEVAALEKEVAALEKEVAALEK
chain 2: DIQMTQSPSSLSASVGDRVTITCRPSQDISNYLNWYQQKPDKTVKLLIYYTSRLRSGVPSRFSGSGSGTDFTFTISSLQPEDIATYFCQQGDTLPYTFGQGTKLEIKGGGSGGGGQVQLVQSGAEVKKPGASVKVSCKASGYTFTSYWINWVKQAPGQGLEWIGNIYPSDSYTNYNQKFKDKATITADKSTSTAYMELSSLRSEDTAVYYCTRDYGSAYSYSLWGQGTTVTVSSGGCGGGKVAALKEKVAALKEKVAALKEKVAALKE
notes: also called optimized DART-G3
[1]
  EC50 (read off the curve): ~0.09 nM
[2]
  EC50 (read off the curve): ~0.02 µg/mL
[3]
  EC50 (read off the curve): ~0.2 nM
[4]
  EC50 (read off the curve): ~0.5 nM
[5]
  koff: 0.018 s⁻¹
[6]
  EC50 (read off the curve): ~0.02 µg/mL
[7]
  Kd: 64 nM
  koff: 0.014 s⁻¹
  kon: 220000 M⁻¹ s⁻¹
[8]
  Kd: 78 nM
  kon: 230000 M⁻¹ s⁻¹
[9]
  EC50 (read off the curve): ~0.1 nM

B2: DART-G2 (bispecific antibody, human IgG1, kappa, L234A L235A)
heavy: B1 heavy
light: B1 light
chain 1: B1 chain 1 with Y682M, L684T
chain 2: B1 chain 2 with Y221M, L223T
notes: also called optimized DART-G2
[1]
  EC50 (read off the curve): ~0.09 nM
[2]
  EC50 (read off the curve): ~0.02 µg/mL
[3]
  EC50 (read off the curve): ~0.2 nM
[4]
  EC50 (read off the curve): ~0.5 nM
[5]
  koff: 0.025 s⁻¹
[6]
  EC50 (read off the curve): ~0.02 µg/mL
[7]
  Kd: 60 nM
  koff: 0.021 s⁻¹
  kon: 350000 M⁻¹ s⁻¹
[8]
  Kd: 64 nM
  kon: 390000 M⁻¹ s⁻¹
[9]
  EC50 (read off the curve): ~0.1 nM

B3: DART-G4 (bispecific antibody, human IgG1, kappa, L234A L235A)
heavy: B1 heavy
light: B1 light
chain 1: B1 chain 1 with A679S, S683N, L684V
chain 2: B1 chain 2 with A218S, S222N, L223V
notes: also called optimized DART-G4
[1]
  EC50 (read off the curve): ~0.09 nM
[2]
  EC50 (read off the curve): ~0.02 µg/mL
[3]
  EC50 (read off the curve): ~0.2 nM
[4]
  EC50 (read off the curve): ~0.5 nM
[5]
  koff: 0.014 s⁻¹
[6]
  EC50 (read off the curve): ~0.02 µg/mL
[7]
  Kd: 28 nM
  koff: 0.0087 s⁻¹
  kon: 310000 M⁻¹ s⁻¹
[8]
  Kd: 40 nM
  kon: 350000 M⁻¹ s⁻¹
[9]
  EC50 (read off the curve): ~0.08 nM

B4: TRIDENT-4 (bispecific antibody, human IgG1, kappa, L234A L235A)
chain 1: DIQMTQSPSSLSASVGDRVTITCQASQDISNYLNWYQQKPDKTVKLLIYYTGRARSGVPSRFSGSGSGTDFTFTISSLQPEDIATYFCQQGDTLPYTFGQGTKLEIKGGGSGGGGQVQLVQSGAEVKKPGASVKVSCKASGYTFTSYWINWVRQAPGQGLEWIGNIYPSDSYTNYNQKFKDKATITADKSTSTAYMELSSLRSEDTAVYYCTRDYGSAYSMSTWGQGTTVTVSSASTKGEVAACEKEVAALEKEVAALEKEVAALEKGGGDKTHTCPPCPAPEAAGGPSVFLFPPKPKDTLMISRTPEVTCVVVDVSHEDPEVKFNWYVDGVEVHNAKTKPREEQYNSTYRVVSVLTVLHQDWLNGKEYKCKVSNKALPAPIEKTISKAKGQPREPQVYTLPPSREEMTKNQVSLWCLVKGFYPSDIAVEWESNGQPENNYKTTPPVLDSDGSFFLYSKLTVDKSRWQQGNVFSCSVMHEALHNHYTQKSLSLSPGK
chain 2: DIQMTQSPSSLSASVGDRVTITCQASQDISNYLNWYQQKPDKTVKLLIYYTGRARSGVPSRFSGSGSGTDFTFTISSLQPEDIATYFCQQGDTLPYTFGQGTKLEIKGGGSGGGGQVQLVQSGAEVKKPGASVKVSCKASGYTFTSYWINWVRQAPGQGLEWIGNIYPSDSYTNYNQKFKDKATITADKSTSTAYMELSSLRSEDTAVYYCTRDYGSAYSMSTWGQGTTVTVSSASTKGKVAACKEKVAALKEKVAALKEKVAALKE
heavy: QVTLRESGPALVKPTQTLTLTCTFSGFSLSTSGMSVGWIRQPPGKALEWLADIWWDDKKDYNPSLKSRLTISKDTSKNQVVLKVTNMDPADTATYYCARSMITNWYFDVWGAGTTVTVSSASTKGPSVFPLAPSSKSTSGGTAALGCLVKDYFPEPVTVSWNSGALTSGVHTFPAVLQSSGLYSLSSVVTVPSSSLGTQTYICNVNHKPSNTKVDKRVEPKSCDKTHTCPPCPAPEAAGGPSVFLFPPKPKDTLMISRTPEVTCVVVDVSHEDPEVKFNWYVDGVEVHNAKTKPREEQYNSTYRVVSVLTVLHQDWLNGKEYKCKVSNKALPAPIEKTISKAKGQPREPQVYTLPPSREEMTKNQVSLSCAVKGFYPSDIAVEWESNGQPENNYKTTPPVLDSDGSFFLVSKLTVDKSRWQQGNVFSCSVMHEALHNRYTQKSLSLSPGK
light: DIQMTQSPSTLSASVGDRVTITCRASQSVGYMHWYQQKPGKAPKLLIYDTSKLASGVPSRFSGSGSGTEFTLTISSLQPDDFATYYCFQGSGYPFTFGGGTKLEIKRTVAAPSVFIFPPSDEQLKSGTASVVCLLNNFYPREAKVQWKVDNALQSGNSQESVTEQDSKDSTYSLSSTLTLSKADYEKHKVYACEVTHQGLSSPVTKSFNRGEC
[10]
  EC50 (read off the curve): ~0.007 µg/mL
[11]
  binding result: no binding (tested: 10 ug/mL)
